According to paper PMC11284795:

target: FGFR4/KLB: ectodomain of human FGFR4 fused to Fc, with human beta-klotho (human) (UniProt P22455)

Chain of FGF21 analog 23 (-1A, 121Q, 168L, 180C; C20 fatty diacid on 180C) (Q9NSA1 other isoform, or with tags, fused parts or gaps): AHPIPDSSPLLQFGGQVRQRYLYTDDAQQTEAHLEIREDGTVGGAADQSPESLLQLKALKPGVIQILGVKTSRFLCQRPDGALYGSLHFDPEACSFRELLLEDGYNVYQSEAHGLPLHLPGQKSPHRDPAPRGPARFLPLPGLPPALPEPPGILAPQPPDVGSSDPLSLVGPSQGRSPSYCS
Chain of FGF21 analog 8 (-1A, 121Q, 168L, 171C; cysteamine on 171C) (Q9NSA1 other isoform, or with tags, fused parts or gaps): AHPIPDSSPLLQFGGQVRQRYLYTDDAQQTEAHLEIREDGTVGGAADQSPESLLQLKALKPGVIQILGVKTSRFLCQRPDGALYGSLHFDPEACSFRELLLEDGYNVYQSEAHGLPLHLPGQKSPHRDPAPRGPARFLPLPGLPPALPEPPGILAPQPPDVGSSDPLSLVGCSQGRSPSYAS
Chain of FGF21 analog 19 (-1A, 121Q, 168L, 181C; cysteamine on 181C) (Q9NSA1 other isoform, or with tags, fused parts or gaps): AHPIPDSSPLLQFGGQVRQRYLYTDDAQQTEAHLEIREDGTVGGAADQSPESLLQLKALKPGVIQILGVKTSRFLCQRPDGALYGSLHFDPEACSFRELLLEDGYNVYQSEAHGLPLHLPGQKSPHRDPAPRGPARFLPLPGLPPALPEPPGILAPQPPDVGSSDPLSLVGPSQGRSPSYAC
Chain of FGF21 analog 11 (-1A, 121Q, 168L, 174C; cysteamine on 174C) (Q9NSA1 other isoform, or with tags, fused parts or gaps): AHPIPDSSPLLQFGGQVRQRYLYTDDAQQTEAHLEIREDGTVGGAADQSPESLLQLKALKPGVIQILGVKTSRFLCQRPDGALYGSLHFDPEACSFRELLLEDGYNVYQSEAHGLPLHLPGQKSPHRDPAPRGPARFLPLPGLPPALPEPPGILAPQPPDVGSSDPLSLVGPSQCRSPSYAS
Chain of FGF21 analog 2 (-1A) (Q9NSA1 28-209): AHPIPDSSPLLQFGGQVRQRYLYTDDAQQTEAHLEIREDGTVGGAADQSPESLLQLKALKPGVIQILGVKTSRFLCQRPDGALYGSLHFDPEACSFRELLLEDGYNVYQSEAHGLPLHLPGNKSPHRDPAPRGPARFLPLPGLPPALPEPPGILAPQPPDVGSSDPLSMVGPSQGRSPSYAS
Chain of FGF21 analog 9 (-1A, 121Q, 168L, 172C; cysteamine on 172C) (Q9NSA1 other isoform, or with tags, fused parts or gaps): as the sequence (Q9NSA1 28-209) above, with N122Q, M169L, S173C counted along it
Chain of FGF21 analog 13 (-1A, 121Q, 168L, 178C; cysteamine on 178C) (Q9NSA1 other isoform, or with tags, fused parts or gaps): as the sequence (Q9NSA1 28-209) above, with N122Q, M169L, S179C counted along it
Chain of FGF21 analog 3 (-1A, 121Q) (Q9NSA1 28-209 N149Q): as the sequence (Q9NSA1 28-209) above, with N122Q counted along it
Chain of cysteamine protected Ala[Gln121, Leu168, Cys180]FGF21 (16) (Q9NSA1 other isoform, or with tags, fused parts or gaps): as the sequence (Q9NSA1 28-209) above, with N122Q, M169L, A181C counted along it
Chain of FGF21 (0) (Q9NSA1 29-209): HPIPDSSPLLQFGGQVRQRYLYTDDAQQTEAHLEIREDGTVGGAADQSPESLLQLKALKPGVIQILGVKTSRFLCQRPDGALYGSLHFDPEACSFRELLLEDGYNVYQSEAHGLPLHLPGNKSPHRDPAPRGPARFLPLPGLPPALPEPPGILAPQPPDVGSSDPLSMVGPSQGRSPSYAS
Chain of FGF21 analog 14 (-1A, 121Q, 168L, 179C; cysteamine on 179C) (Q9NSA1 other isoform, or with tags, fused parts or gaps): as the sequence (Q9NSA1 28-209) above, with N122Q, M169L, Y180C counted along it
Chain of Met-FGF19 (25) (O95750 other isoform, or with tags, fused parts or gaps): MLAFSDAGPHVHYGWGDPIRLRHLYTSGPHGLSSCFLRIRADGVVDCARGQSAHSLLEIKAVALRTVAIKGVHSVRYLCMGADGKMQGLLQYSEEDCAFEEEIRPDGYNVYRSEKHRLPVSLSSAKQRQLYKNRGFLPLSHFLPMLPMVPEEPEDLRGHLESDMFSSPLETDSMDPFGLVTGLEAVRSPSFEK
Chain of FGF21 analog 5 (-1A, 71C, 121Q, 168L; C18 fatty diacid on 71C) (Q9NSA1 other isoform, or with tags, fused parts or gaps): as the sequence (Q9NSA1 28-209) above, with S72C, N122Q, M169L counted along it
Chain of FGF21 analog 12 (-1A, 121Q, 168L, 176C; cysteamine on 176C) (Q9NSA1 other isoform, or with tags, fused parts or gaps): as the sequence (Q9NSA1 28-209) above, with N122Q, M169L, S177C counted along it
Chain of FGF21 analog 7 (-1A, 121Q, 168L, 170C; cysteamine on 170C) (Q9NSA1 other isoform, or with tags, fused parts or gaps): as the sequence (Q9NSA1 28-209) above, with N122Q, M169L, G171C counted along it
Chain of FGF21 analog 6 (-1A, 121Q, 167C, 168L; cysteamine on 167C) (Q9NSA1 other isoform, or with tags, fused parts or gaps): as the sequence (Q9NSA1 28-209) above, with N122Q, S168C, M169L counted along it

Row | potency EC50 of ERK phosphorylation in Ba/F3 cells overexpressing human KLB and FGFR4 (chimera with the kinase domain of FGFR1c), 0% HSA [nM] | Substance
1 | 2.3 | Met-FGF19 (25) (from UniProt O95750 25-216) (ligand)

target: human beta-klotho (KLB) on HEK293 cells (human) (UniProt Q86Z14)

Row | Substance | potency (EC50) of ERK phosphorylation in HEK293 cells transfected with human KLB, without HSA [nM] | potency (EC50) of ERK phosphorylation in HEK293 cells transfected with human KLB, without HSA (with 0.1 and 1.0% HSA: 1.8 and 2.1 nM, Table 3) [nM]
2 | FGF21 analog 5 (-1A, 71C, 121Q, 168L; C18 fatty diacid on 71C) (from UniProt Q9NSA1 29-209) (ligand) | 4.8 | 
3 | FGF21 analog 7 (-1A, 121Q, 168L, 170C; cysteamine on 170C) (from UniProt Q9NSA1 29-209) (ligand) | 3.4 | 
4 | FGF21 analog 8 (-1A, 121Q, 168L, 171C; cysteamine on 171C) (from UniProt Q9NSA1 29-209) (ligand) | 2.2 | 
5 | FGF21 analog 9 (-1A, 121Q, 168L, 172C; cysteamine on 172C) (from UniProt Q9NSA1 29-209) (ligand) | 3.3 | 
6 | FGF21 analog 10 (-1A, 121Q, 168L, 174C; C18 fatty diacid on 174C) (from UniProt Q9NSA1 29-209) (ligand) | 1.5 | 
7 | FGF21 analog 11 (-1A, 121Q, 168L, 174C; cysteamine on 174C) (from UniProt Q9NSA1 29-209) (ligand) | 6.1 | 
8 | FGF21 analog 19 (-1A, 121Q, 168L, 181C; cysteamine on 181C) (from UniProt Q9NSA1 29-209) (ligand) | 24 | 

Next, values leading:

Row | potency (EC50) of ERK phosphorylation in HEK293 cells transfected with human KLB, without HSA [nM] | potency (EC50) of ERK phosphorylation in HEK293 cells transfected with human KLB, without HSA (with 0.1 and 1.0% HSA: 1.8 and 2.1 nM, Table 3) [nM] | Substance
9 | 1 |  | FGF21 (0) (from UniProt Q9NSA1 29-209) (ligand)
10 | 1.3 |  | FGF21 analog 2 (-1A) (from UniProt Q9NSA1 29-209) (ligand)
11 | 1 |  | FGF21 analog 3 (-1A, 121Q) (from UniProt Q9NSA1 29-209) (ligand)
12 | 1.4 |  | FGF21 analog 6 (-1A, 121Q, 167C, 168L; cysteamine on 167C) (from UniProt Q9NSA1 29-209) (ligand)
13 | 160 |  | FGF21 analog 12 (-1A, 121Q, 168L, 176C; cysteamine on 176C) (from UniProt Q9NSA1 29-209) (ligand)
14 | 90 |  | FGF21 analog 13 (-1A, 121Q, 168L, 178C; cysteamine on 178C) (from UniProt Q9NSA1 29-209) (ligand)
15 | 67 |  | FGF21 analog 14 (-1A, 121Q, 168L, 179C; cysteamine on 179C) (from UniProt Q9NSA1 29-209) (ligand)
16 |  | 2.5 | cysteamine protected Ala[Gln121, Leu168, Cys180]FGF21 (16) (from UniProt Q9NSA1 29-209) (ligand)

target: human beta-klotho (KLB) on HEK293 cells (human) (UniProt Q86Z14); remark: another data set of the same source

Row | potency (EC50) of ERK phosphorylation in HEK293 cells transfected with human KLB, 0% HSA [nM] | Substance
17 | 5.8 | FGF21 analog 20 (-1A, 121Q, 168L, 180C; C12 fatty diacid on 180C) (from UniProt Q9NSA1 29-209) (ligand)
18 | 5.2 | FGF21 analog 21 (-1A, 121Q, 168L, 180C; C14 fatty diacid on 180C) (from UniProt Q9NSA1 29-209) (ligand)
19 | 3.5 | FGF21 analog 22: Ala[Gln121, Leu168, Cys180]FGF21 with a C16 fatty diacid side chain on 180C (from UniProt Q9NSA1 29-209) (ligand)
20 | 3.8 | FGF21 analog 23 (-1A, 121Q, 168L, 180C; C20 fatty diacid on 180C) (from UniProt Q9NSA1 29-209) (ligand)

target: human serum albumin (HSA) (human) (UniProt P02768)

Row | potency (EC50) of ERK phosphorylation in HEK293/human KLB cells with 0.1 and 1.0% HSA: 3.7 and 5.2 nM (5.8 nM without HSA); no HSA-dependent reduction of potency [nM] | potency (EC50) of ERK phosphorylation in HEK293/human KLB cells with 0.1, 1.0 and 1.5% HSA: 4.0, 5.8 and 8.6 nM (5.2 nM without HSA); no HSA-dependent reduction of potency [nM] | potency (EC50) of ERK phosphorylation in HEK293/human KLB cells with 0.1, 1.0 and 1.5% HSA: 4.2, 52 and 92 nM (3.5 nM without HSA) [nM] | potency (EC50) of ERK phosphorylation in HEK293/human KLB cells with 0.1 and 1.5% HSA: 47 and 173 nM (3.8 nM without HSA) [nM] | Substance
21 | 5.2 |  |  |  | FGF21 analog 20 (-1A, 121Q, 168L, 180C; C12 fatty diacid on 180C) (from UniProt Q9NSA1 29-209) (ligand)
22 |  | 8.6 |  |  | FGF21 analog 21 (-1A, 121Q, 168L, 180C; C14 fatty diacid on 180C) (from UniProt Q9NSA1 29-209) (ligand)
23 |  |  | 92 |  | FGF21 analog 22: Ala[Gln121, Leu168, Cys180]FGF21 with a C16 fatty diacid side chain on 180C (from UniProt Q9NSA1 29-209) (ligand)
24 |  |  |  | 173 | FGF21 analog 23 (-1A, 121Q, 168L, 180C; C20 fatty diacid on 180C) (from UniProt Q9NSA1 29-209) (ligand)
